Target: S. Typhimurium CueP C172S mutant (S. Typhimurium)
Assay: SEC

For “S. Typhimurium CueP C172S mutant (natural protein)”, the stoichiometry N was 4.
